Test results taken from US20240376195A1 (BEIGENE, published 2024).

Columns and labels:
[1] = target: T1, his-tagged human NKp30 (human, UniProt O14931 19-135); test: SPR, antibody captured on anti-human Fc surface
T1 construct: Analyte of the SPR assay; not shown: his tag
T1 sequence: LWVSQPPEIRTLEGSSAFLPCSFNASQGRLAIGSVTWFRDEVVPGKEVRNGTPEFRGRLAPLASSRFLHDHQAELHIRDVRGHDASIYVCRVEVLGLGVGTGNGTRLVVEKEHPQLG
Source text: (§1) Further engineered versions of humanized monoclonal antibodies were derived from the mutation process described as above and characterized in detail. […] For affinity determination, antibodies were captured by anti-human Fc surface, and used in the affinity assay based on surface plasmon resonance (SPR) technology. All the humanization antibodies shown above were also confirmed for functional activities on primary human immune cells isolated from healthy donors (described in Example 7 below).

[2] = target: T1, his-tagged human NKp30; test: SPR, antibody captured on anti-human Fc surface; NKp30 analyte not named in Example 4
Source text: as §1

[3] = target: T2, full-length human NKp30 on NK92MI cells (human, UniProt O14931 19-201); test: flow cytometry on live NK92MI cells over-expressing human NKp30, goat anti-human IgG detection
T2 construct: Full-length human NKp30 over-expressed on NK92MI cells; also called huNKp30; native NKp30
T2 sequence: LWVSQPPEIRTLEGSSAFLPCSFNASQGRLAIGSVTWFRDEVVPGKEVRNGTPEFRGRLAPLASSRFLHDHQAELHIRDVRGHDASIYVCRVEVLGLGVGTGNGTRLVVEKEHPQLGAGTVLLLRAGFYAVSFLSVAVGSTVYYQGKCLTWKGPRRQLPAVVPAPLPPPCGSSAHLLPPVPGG
Experimental: To evaluate the binding activity of anti-NKp30 antibodies to native NKp30 on living cells, NK92MI cells were transfected to over-express human NKp30. Live NK92mi/NKp30 expressing cells were seeded in 96-well plates and were incubated with a serial dilution of anti-NKp30 antibodies. Goat anti-Human IgG was used as secondary antibody to detect antibody binding to the cell surface. EC₅₀ values for dose-dependent binding to human native NKp30 were determined by fitting the dose-response data to the four-parameter logistic model with GraphPad Prism™.

[4] = target: T3, W20A; test: ELISA; 50 ng Nkp30-Fc variant coated, antibody at 20 nM, HRP-linked secondary antibody; signal relative to wild type
T3 construct: single alanine mutant; also called mutant Nkp30-Fc W20A
T3 Fc fusion chain: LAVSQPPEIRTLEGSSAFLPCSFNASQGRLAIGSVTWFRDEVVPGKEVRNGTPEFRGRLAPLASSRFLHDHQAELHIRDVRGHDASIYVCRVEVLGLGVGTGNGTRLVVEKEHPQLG
Experimental: (§2) To characterize the binding epitope of BGA1833, 10 amino acid residues of NKp30 were mutated to alanine individually to generate 10 single-mutation NKp30 variants based upon the information from the crystal structure of NKp30 reported previously (Li et al., J Exp Med. 2011 208:703-714). The mutant NKp30 proteins along with the wild-type NKp30 protein were analyzed for their recognition and binding by BGA1833. Another humanized anti-NKp30 antibody, BGA1913, was also analyzed in the same ELISA assay for comparison. In this assay, 50 ng each of wild-type or mutant Nkp30-Fc was coated in an ELISA plate. After blocking, 100 μl of BGA1833 or BGA1913 antibody at a concentration of 20 nM was added to the plate and the binding signal of each antibody was detected by HRP-linked secondary antibody. All ELISA results were normalized using the mean values of the ELISA reading of wild type NKp30-Fc binding signal as the standard. To simplify data analysis, if an antibody's ELISA binding signal for a specific mutant NKp30 dropped to or below 25%, then the amino acid at that site was considered critical to the epitope.

[5] = target: T4, S52A; test: as above
T4 construct: single alanine mutant; also called mutant Nkp30-Fc S52A
T4 Fc fusion chain: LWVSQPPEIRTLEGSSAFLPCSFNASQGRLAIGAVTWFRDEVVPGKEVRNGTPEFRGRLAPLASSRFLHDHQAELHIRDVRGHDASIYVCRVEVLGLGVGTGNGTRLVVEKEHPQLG
Experimental: as §2

[6] = target: T5, E65A; test: as above
T5 construct: single alanine mutant; also called mutant Nkp30-Fc E65A
T5 Fc fusion chain: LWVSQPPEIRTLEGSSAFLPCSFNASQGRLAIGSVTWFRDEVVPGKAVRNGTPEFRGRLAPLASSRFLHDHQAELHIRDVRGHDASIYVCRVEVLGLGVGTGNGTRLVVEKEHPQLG
Experimental: as §2

[7] = target: T6, R109A; test: as above
T6 construct: single alanine mutant; also called mutant Nkp30-Fc R109A
T6 Fc fusion chain: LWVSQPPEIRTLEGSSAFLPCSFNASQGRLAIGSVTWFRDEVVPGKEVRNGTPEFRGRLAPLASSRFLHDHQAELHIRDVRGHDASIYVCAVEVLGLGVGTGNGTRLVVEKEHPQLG
Experimental: as §2

[8] = target: T7, E111A; test: as above
T7 construct: single alanine mutant; also called mutant Nkp30-Fc E111A
T7 Fc fusion chain: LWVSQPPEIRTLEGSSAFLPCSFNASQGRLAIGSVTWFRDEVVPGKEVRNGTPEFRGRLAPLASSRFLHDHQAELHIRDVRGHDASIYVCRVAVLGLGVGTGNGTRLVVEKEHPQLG
Experimental: as §2

[9] = target: T8, V117A; test: as above
T8 construct: single alanine mutant; also called mutant Nkp30-Fc V117A
T8 Fc fusion chain: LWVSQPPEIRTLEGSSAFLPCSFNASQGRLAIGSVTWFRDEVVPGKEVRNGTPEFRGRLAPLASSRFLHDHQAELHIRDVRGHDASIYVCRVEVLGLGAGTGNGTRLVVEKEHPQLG
Experimental: as §2

[10] = target: T9, T119A; test: as above
T9 construct: single alanine mutant; also called mutant Nkp30-Fc T119A
T9 Fc fusion chain: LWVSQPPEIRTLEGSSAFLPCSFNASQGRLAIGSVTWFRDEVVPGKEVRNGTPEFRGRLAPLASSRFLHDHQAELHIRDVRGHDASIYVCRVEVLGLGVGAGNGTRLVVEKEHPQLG
Experimental: as §2

[11] = target: T10, K129A; test: as above
T10 construct: single alanine mutant; also called mutant Nkp30-Fc K129A
T10 Fc fusion chain: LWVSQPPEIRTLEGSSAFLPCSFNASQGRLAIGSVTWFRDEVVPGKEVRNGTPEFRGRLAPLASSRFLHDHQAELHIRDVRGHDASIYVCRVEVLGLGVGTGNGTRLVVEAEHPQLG
Experimental: as §2

fold lower affinity than the initial antibody [1]: ~10 fold | Kd [2]: 1.92 nM | koff [2]: 0.00278 s⁻¹ | kon [2]: 1.45e+06 M⁻¹ s⁻¹ | EC50 [3]: 1.31 nM | binding result [4]: binds | binding result [5]: binds | binding result [6]: binds | binding result [7]: binds | binding result [8]: binds | binding result [9]: binds | binding result [10]: binds | binding result [11]: binds
B1: BGA1833 (antibody, human IgG1, kappa)
heavy: QVQLVQSGAEVKKPGASVKVSCKASGYTFTSSYMHWVRQAPGQGLEWMGEIHPNRDNTNYNEKFKGRVTMTRDTSTSTVYMELSSLRSEDTAVYYCARSYYEYGGAYFDAWGQGTLVTVSSASTKGPSVFPLAPSSKSTSGGTAALGCLVKDYFPEPVTVSWNSGALTSGVHTFPAVLQSSGLYSLSSVVTVPSSSLGTQTYICNVNHKPSNTKVDKKVEPKSCDKTHTCPPCPAPPAAGPSVFLFPPKPKDTLMISRTPEVTCVVVDVSHEDPEVKFNWYVDGVEVHNAKTKPREEQYNSTYRVVSVLTVLHQDWLNGKEYKCKVSNKALAAPIEKTISKAKGQPREPQVYTLPPSRDELTKNQVSLTCLVKGFYPSDIAVEWESNGQPENNYKTTPPVLDSDGSFFLYSKLTVDKSRWQQGNVFSCSVMHEALHNHYTQKSLSLSPGK
light: QIQLTQSPSSLSASVGDRVTITCKASQDVSTAVAWYQQKPGKAPKLLIYAASYRHIGVPSRFSGSGSGTDFTLTISSLQPEDFATYYCQQHYSNPFTFGGGTKVEIKRTVAAPSVFIFPPSDEQLKSGTASVVCLLNNFYPREAKVQWKVDNALQSGNSQESVTEQDSKDSTYSLSSTLTLSKADYEKHKVYACEVTHQGLSSPVTKSFNRGEC
notes: also called BGA1833 (IgG1mf format)
